Results on 2 molecules are retold here after patent publication US20200231640A1 (ANTIBIOTIC ALTERNATIVES, published 2020).

Assay [1] deals with T1, S100A9 subunit (human, UniProt P06702 1-114).
T1 construct: Captured with anti-S100A9 from lysate of cells that also express S100A8, so it probably stood in the complex; also called MRP14; calgranulin B
T1 sequence (looked up): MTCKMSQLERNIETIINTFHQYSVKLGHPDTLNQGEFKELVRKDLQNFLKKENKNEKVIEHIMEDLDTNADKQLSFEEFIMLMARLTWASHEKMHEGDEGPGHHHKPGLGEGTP
Kind of assay: immunofluorescence of mRNA-transfected KB cells with the heterodimer-specific antibody 27E10. The procedure:
After CAMP, S100A8/S100A9 mRNA transfection for 16 hours, cells were fixed with 4% paraformaldehyde for 10 minutes, washed with PBS (pH 7.4), and then permeabilized with 0.25% Triton X-100 for 10 minutes. After blocking one hour with 1% BSA in PBS/0.1% Tween 20 and rinsing 3× with PBS, cells were incubated with mouse anti-calprotectin (mAb 27E10, sc-33714, Santa Cruz Biotechnolology, Inc., Santa Cruz, Calif.) or mouse anti-LL37 (sc-166770, Santa Cruz Biotechnolology, Inc., Santa Cruz, Calif.) for one hour, followed by Alexa Fluor 568-conjugated goat anti-mouse IgG or Alexa Fluor 488-conjugated goat anti-rabbit IgG (Life Technologies Corp., Carlsbad, Calif.) for one hour. For EGFP mRNA transfection, no antibody incubation was needed. Nuclei were stained with DAPI. Fluorescence images were captured using an epifluorescence microscope system. A8-IRES-A9 and A8-nIRES-A9 mRNA transfection for 40 hours were also performed.

The target in assay [2] is T2, Chk1 (human, UniProt O14757 1-476).
T2 construct: also called checkpoint kinase Chk1; p-Chk1 (Ser345)
T2 sequence (looked up): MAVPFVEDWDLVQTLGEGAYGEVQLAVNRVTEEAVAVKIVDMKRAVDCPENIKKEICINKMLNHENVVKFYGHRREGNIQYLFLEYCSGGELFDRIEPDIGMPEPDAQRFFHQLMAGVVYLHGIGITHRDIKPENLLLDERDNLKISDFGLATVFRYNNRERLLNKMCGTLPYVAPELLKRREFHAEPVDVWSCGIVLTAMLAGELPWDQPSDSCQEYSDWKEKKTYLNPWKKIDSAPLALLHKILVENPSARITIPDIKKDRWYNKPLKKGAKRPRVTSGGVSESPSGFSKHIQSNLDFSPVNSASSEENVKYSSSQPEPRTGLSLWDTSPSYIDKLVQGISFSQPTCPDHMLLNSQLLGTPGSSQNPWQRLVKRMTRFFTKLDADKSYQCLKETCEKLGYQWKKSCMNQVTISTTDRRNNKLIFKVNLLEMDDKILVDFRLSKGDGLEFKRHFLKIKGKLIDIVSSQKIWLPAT
The assay can be described thus: co-immunoprecipitation from cell lysate.

B1: S100A8 (other, human, UniProt P05109 1-93, looked up)
chain: MLTELEKALNSIIDVYHKYSLIKGNFHAVYRDDLKKLLETECPQYIRKKGADVWFKELDINTDGAVNFQEFLILVIKMGVAAHKKSHEESHKE
notes: Expressed in KB cells from transfected mRNA; also called MRP8; calgranulin A
Regarding B1, the binding result in assay [1] is listed as “binds”.

B2: S100A8/A9 protein complex (calprotectin; S100A8 complexed with S100A9) (other, human)
chain 1: B1 chain
chain 2: T1 sequence (looked up)
notes: Cytosolic complex in lysates of stably transfected KB-S100A8/A9 cells (co-immunoprecipitation), or in mRNA-transfected KB cells (immunofluorescence); also called S100A8/S100A9 heterodimer; MRP8/14
Take B2: the binding result in assay [2] is “no binding”.
